# Test results published in US20230295310A1 (ABCELLERA BIOLOGICS, published 2023).
# Changes are numbered by the printed parent chain.
# B1: GOMP001_bsAb_044 (bispecific antibody, human IgG1, kappa, L234A L235A)
# heavy 1: EVQLVESGGGLVKTGGSLRLSCVASGFSFKKAWMNWVRYAPGKGLEWVGRIKRNTDGGTADYAARVKGRFTLSRDDSKKTLFLQMNSLKTEDTAVYYCTTLDSSSYYVGYYYMDVWGRGTTVTVSSASTKGPSVFPLAPSSKSTSGGTAALGCLVKDYFPEPVTVSWNSGALTSGVHTFPAVLQSSGLYSLSSVVTVPSSSLGTQTYICNVNHKPSNTKVDKKVEPKSCDKTHTCPPCPAPEAAGGPSVFLFPPKPKDTLMISRTPEVTCVVVDVSHEDPEVKFNWYVDGVEVHNAKTKPREEQYNSTYRVVSVLTVLHQDWLNGKEYKCKVSNKALPAPIEKTISKAKGQPRRPRVYTLPPSREEMTKNQVSLVCLVKGFYPSDIAVEWESNGQPENNYKTTPPVLDSDGSFFLYSVLTVDKSRWQQGNVFSCSVMHEALHNHYTQKSLSLSPG
# light 1: DIQMTQSPSSVSASVGDRVTITCRASQDINNWLAWYQRKPGDAPKLLIYTASSLQSGVPSRFSGSGSGTDFTLTIGSLQPEDFATYYCQQAHSLPITFGQGTRLEIKRTVAAPSVFIFPPSDEQLKSGTASVVCLLNNFYPREAKVQWKVDNALQSGNSQESVTEQDSKDSTYSLSSTLTLSKADYEKHKVYACEVTHQGLSSPVTKSFNRGEC
# heavy 2: QVQLVQSGAEVKKPGASVKVSCKASGYTFTSHWMHWVRYAPGQGLEWIGEFNPSNGRTNYNEKFKSKATMTVDTSTNTAYMELSSLRSEDTAVYYCASRDYDYDGRYFDYWGRGTLVTVSSASTKGPSVFPLAPSSKSTSGGTAALGCLVKDYFPEPVTVSWNSGALTSGVHTFPAVLQSSGLYSLSSVVTVPSSSLGTQTYICNVNHKPSNTKVDKKVEPKSCDKTHTCPPCPAPEAAGGPSVFLFPPKPKDTLMISRTPEVTCVVVDVSHEDPEVKFNWYVDGVEVHNAKTKPREEQYNSTYRVVSVLTVLHQDWLNGKEYKCKVSNKALPAPIEKTISKAKGQPRRPRVYTLPPSREEMTKNQVSLVCLVKGFYPSDIAVEWESNGQPENNYKTTPPVLDSDGSFFLYSVLTVDKSRWQQGNVFSCSVMHEALHNHYTQKSLSLSPG
# light 2: DIQMTQSPSSLSASVGDRVTITCSASSSVTYMYWYQRKPGDAPKLLIYDTSNLASGVPSRFSGSGSGTDYTFTISSLQPEDIATYYCQQWSSHIFTFGQGTKVEIKRTVAAPSVFIFPPSDEQLKSGTASVVCLLNNFYPREAKVQWKVDNALQSGNSQESVTEQDSKDSTYSLSSTLTLSKADYEKHKVYACEVTHQGLSSPVTKSFNRGEC
# B2: GOMP001_bsAb_045 (bispecific antibody, human IgG1, kappa, L234A L235A)
# heavy 1: QVQLVQSGAEVKKPGASVKVSCKASGYTFTSHWMHWVRKAPGQGLEWIGEFNPSNGRTNYNEEFKSKATMTVDTSTNTAYMELSSLRSEDTAVYYCASRDYDYDGRYFDYWGQGTLVTVSSASTKGPSVFPLAPSSKSTSGGTAALGCLVADYFPEPVTVSWNSGALTSGVHTFPAVLQSSGLYSLSSVVTVPSSSLGTQTYICNVNHKPSNTKVDEKVEPKSCDKTHTCPPCPAPEAAGGPSVFLFPPKPKDTLMISRTPEVTCVVVDVSHEDPEVKFNWYVDGVEVHNAKTKPREEQYNSTYRVVSVLTVLHQDWLNGKEYKCKVSNKALPAPIEKTISKAKGQPREPQVYTLPPSREEMTDNQVSLTCLVKGFYPSDIAVEWESNGQPENNYKTTPPVLMSDGSFFLASKLTVDKSRWQQGNVFSCSVMHEALHNHYTQKSLSLSPG
# light 1: B1 light 2 with D1R, R37D, D41K, E122K, S130R
# heavy 2: B2 heavy 1
# light 2: not shown
# Target: human EGFR, C-terminal eGFP-tagged, on CHO-K1 cells (human, UniProt P00533 25-1210)
# Assay: cell-based or functional assay
Binder,"EC50 CHO-K1 EGFR Low (nM); T cell activation bioassay, luciferase","EC50 CHO-K1 EGFR Med (nM); T cell activation bioassay, luciferase"
B1,0.0136 nM,0.0041 nM
B2,0.071 nM,0.00792 nM
